The Immune Epitope Database (IEDB)
pIC50: −log10 of the molar value.

What was measured:
HLA-A*02:02 = assay: IEDB peptide-MHC binding, cellular MHC/competitive/fluorescence; ≥ and ≤ were set here for values at or beyond the usual limits of such assays
HLA-A*02:06 [1] = assay: as above
HLA-A*02:01 [2] = assay: as above
HLA-A*68:02 [3] = assay: IEDB peptide-MHC binding, purified MHC/competitive/radioactivity; ≥ and ≤ were set here for values at or beyond the usual limits of such assays
HLA-A*02:03 = assay: as above
HLA-A*68:02 [4] = assay: IEDB peptide-MHC binding, cellular MHC/competitive/fluorescence; ≥ and ≤ were set here for values at or beyond the usual limits of such assays
HLA-A*02:06 [5] = assay: IEDB peptide-MHC binding, purified MHC/competitive/radioactivity; ≥ and ≤ were set here for values at or beyond the usual limits of such assays
HLA-A*02:01 [6] = assay: as above
[7] = source organism: Vaccinia virus WR
[8] = source organism: Influenza A virus
[9] = source organism: Mammarenavirus lassaense

Row | Sequence | pIC50 (HLA-A*02:02; [7]) | pIC50 (HLA-A*02:01 [2]; [7]) | pIC50 (HLA-A*68:02 [3]; [7]) | pIC50 (HLA-A*02:03; [7]) | pIC50 (HLA-A*68:02 [4]; [7]) | pIC50 (HLA-A*02:06 [5]; [7]) | pIC50 (HLA-A*02:01 [6]; [7]) | also measured
1 | ETMYLTMKA | 5.11 | 4.72 | 9.19 | 6.03 |  |  |  | pIC50 (HLA-A*02:06 [1]; [7]): 4.90
2 | DAMIHKTYI | 5.27 | 5.09 | 7.06 | 5.82 |  |  |  | pIC50 (HLA-A*02:06 [1]; [7]): 5.02
3 | YVILKDPRIA | 5.22 | 4.40 |  | 6.45 | 4.72 | 5.72 |  | 
4 | NIKPVIVPDI | 4.99 | ≤ 4.15 |  | 6.13 | 5.02 | 6.02 |  | 
5 | VLEKKVCAI | 4.84 |  |  | 5.64 | 4.34 | 5.47 | 5.86 | 
6 | CIVAAVIIM | 4.85 |  | 5.35 | 5.85 |  |  | 5.80 | pIC50 (HLA-A*02:06 [1]; [7]): 4.48
7 | DITNILGGVL | 4.91 | 4.79 | 6.29 | 5.43 |  |  |  | pIC50 (HLA-A*02:06 [1]; [7]): 4.72
8 | SIGFEARIV | 4.99 | 5.14 |  | 6.24 | 4.72 | 5.88 |  | 
9 | TQVKELGIA | 5.14 | 4.91 |  | 7.28 | 4.63 | 7.25 |  | 
10 | TAIRAGYSIV | 5.17 | 4.58 | 5.98 | 7.14 |  |  |  | pIC50 (HLA-A*02:06 [1]; [7]): 5.07
11 | AAMDDFQLI |  |  |  |  |  |  |  | pIC50 (HLA-A*02:02; [8]): 5.02; pIC50 (HLA-A*68:02 [4]; [8]): 4.24; pIC50 (HLA-A*02:01 [2]; [8]): 5.10; pIC50 (HLA-A*02:06 [5]; [8]): 7.00; pIC50 (HLA-A*02:03; [8]): 5.76
12 | VQLPKRGVRV | 4.47 |  |  | 5.66 | 4.25 | 7.39 | 5.78 | 
13 | VIRHVDGKI | 5.07 | 4.36 | 5.84 | 6.01 |  |  |  | pIC50 (HLA-A*02:06 [1]; [7]): 5.03
14 | GVLIAGIIL | 5.28 |  |  | 5.98 | 4.77 | 6.02 | 6.26 | 
15 | LVQYRILPMI | 4.90 |  |  | 5.92 | 4.90 | 6.15 | 5.60 | 
16 | QVKELGIAI | 5.04 | 4.97 |  | 6.05 | 5.12 | 5.43 |  | 
17 | VILKDPRIA | 4.97 |  |  | 6.22 | 4.42 | 6.50 | 6.16 | 
18 | EAFETQSGAL | 5.07 | 4.85 | 7.17 | 6.00 |  |  |  | pIC50 (HLA-A*02:06 [1]; [7]): 4.82
19 | IVQSVLRDI | ≤ 4.15 | 4.33 |  | 7.00 | 4.32 | 5.88 |  | 
20 | GAAITLVVI | 5.19 |  |  | 5.48 | 5.14 | 5.53 | 5.97 | 
21 | CALVSDCAST | 5.19 |  |  | 6.84 | 4.28 | 5.59 | 6.83 | 
22 | MSIQLINKAV |  |  |  |  |  |  |  | pIC50 (HLA-A*02:02; [9]): 4.94; pIC50 (HLA-A*02:01 [2]; [9]): 5.14; pIC50 (HLA-A*68:02 [3]; [9]): 7.96; pIC50 (HLA-A*02:06 [5]; [9]): 6.21; pIC50 (HLA-A*02:03; [9]): 5.75
23 | HTNHSDISM | 5.05 | 4.92 | 7.59 | 5.38 |  | 5.92 |  | 

Row | Sequence | pIC50 (HLA-A*02:02; [7]) | pIC50 (HLA-A*02:01 [2]; [7]) | pIC50 (HLA-A*68:02 [3]; [7]) | pIC50 (HLA-A*02:03; [7]) | pIC50 (HLA-A*68:02 [4]; [7]) | pIC50 (HLA-A*02:06 [5]; [7]) | pIC50 (HLA-A*02:01 [6]; [7]) | also measured
24 | DLKHATDYIA | 5.06 | 4.79 |  | 5.53 | 5.03 | 5.98 |  | 
25 | EVMPEKRNVV | 4.70 | 4.35 | 6.97 | 5.58 |  |  |  | pIC50 (HLA-A*02:06 [1]; [7]): 4.92
26 | STIANSNII | 5.21 | 4.90 | 7.46 | 5.83 |  | 5.91 |  | 
27 | YIWIKNLET | 4.90 |  |  | 5.93 | 4.49 | 6.46 |  | 
28 | DINVIGLIV | 5.01 |  | 5.64 | 5.39 |  |  | 6.41 | pIC50 (HLA-A*02:06 [1]; [7]): 5.26
29 | KINNNRIVAM | 5.04 | 4.63 |  | 5.89 | 4.64 | 5.50 |  | 
30 | YASLTTIGTI | 5.20 | 5.07 | 6.88 | 6.40 |  | 7.08 |  | 
31 | EVGTNFGTI | 5.24 | 4.70 | 7.16 | 5.71 |  |  |  | pIC50 (HLA-A*02:06 [1]; [7]): 4.70
32 | NVMGMIGI |  |  |  |  |  |  |  | pIC50 (HLA-A*02:02; [8]): 5.23; pIC50 (HLA-A*02:01 [2]; [8]): 4.84; pIC50 (HLA-A*68:02 [3]; [8]): 6.73; pIC50 (HLA-A*02:06 [5]; [8]): 5.69; pIC50 (HLA-A*02:03; [8]): 5.32
33 | FIISTLNKIL | 5.29 |  |  | 8.74 | 4.93 | 8.09 | 6.77 | 
34 | LTKDRKMLEL | 5.11 |  | 5.32 | 6.88 |  |  | 5.46 | pIC50 (HLA-A*02:06 [1]; [7]): 4.68
35 | SASDMQKFTI | 4.97 | 4.87 | 6.31 | 5.91 |  | 5.37 |  | 
36 | DLLLPSTDV | 4.82 |  |  | 5.41 | 4.88 | 5.98 | 5.83 | 
37 | SVDAMIHKT | 5.30 | 4.62 | 6.06 | 5.44 |  |  |  | pIC50 (HLA-A*02:06 [1]; [7]): 4.98
38 | PTSETMYLT | 4.98 | 4.46 | 5.39 | 5.44 |  |  |  | pIC50 (HLA-A*02:06 [1]; [7]): ≤ 4.15
39 | GADINLMPI |  |  |  |  |  |  |  | pIC50 (HLA-A*02:02; [8]): 5.13; pIC50 (HLA-A*02:06 [1]; [8]): 5.24; pIC50 (HLA-A*02:01 [2]; [8]): 4.92; pIC50 (HLA-A*68:02 [3]; [8]): 5.36; pIC50 (HLA-A*02:03; [8]): 5.48
40 | VTDKTAYIGT | 4.66 | 5.18 |  | 5.40 | 5.19 | 6.64 |  | 
41 | EVLMSPCRM | 5.17 | 4.55 | 5.82 | 6.19 |  |  |  | pIC50 (HLA-A*02:06 [1]; [7]): 4.93
42 | QQLCTMERT | ≤ 4.15 | 4.33 |  | 5.34 | ≤ 4.15 | 6.03 |  | 
43 | RTWKVLSIM | 4.72 |  | 5.38 | 5.58 |  |  | 6.08 | pIC50 (HLA-A*02:06 [1]; [7]): 4.47
44 | STFNMWREI | 5.24 | 5.25 | 7.70 | 6.15 |  | 7.02 |  | 
45 | DITNILGGV | 5.01 | 4.94 | 7.92 | 5.79 |  |  |  | pIC50 (HLA-A*02:06 [1]; [7]): 5.13
46 | RTIDAINKCV | 4.97 | 4.60 | 6.54 | 6.48 |  | 6.47 |  | 

Row | Sequence | pIC50 (HLA-A*02:02; [7]) | pIC50 (HLA-A*02:01 [2]; [7]) | pIC50 (HLA-A*68:02 [3]; [7]) | pIC50 (HLA-A*02:03; [7]) | pIC50 (HLA-A*68:02 [4]; [7]) | pIC50 (HLA-A*02:06 [5]; [7]) | pIC50 (HLA-A*02:01 [6]; [7]) | also measured
47 | VNPTLLFLKV |  |  |  |  |  |  |  | pIC50 (HLA-A*02:02; [8]): 5.20; pIC50 (HLA-A*02:06 [1]; [8]): 4.78; pIC50 (HLA-A*68:02 [3]; [8]): 7.62; pIC50 (HLA-A*02:01 [6]; [8]): 5.43; pIC50 (HLA-A*02:03; [8]): 5.55
48 | NINIEVKLFI | 4.90 |  |  | 5.69 | 5.13 | 5.64 | 5.93 | 
49 | FAFIDFSKST | 4.93 | 5.11 |  | 5.62 | 5.30 | 5.85 |  | 
50 | LVQYRILPM | 4.83 | 4.46 |  | 5.93 | 4.23 | 5.33 |  | 
51 | GLIVILFIM | 4.87 |  | 5.86 | 5.86 |  |  | 5.78 | pIC50 (HLA-A*02:06 [1]; [7]): 5.28
52 | ITPNNLNKI | 4.84 | 4.47 |  | 6.06 | 4.87 | 6.39 |  | 
53 | VTLNRIKIA | 4.88 |  |  | 6.39 | 4.58 | 6.20 | 5.96 | 
54 | NTITTFIPI | 4.81 |  | 8.92 | 6.01 |  |  | 6.07 | pIC50 (HLA-A*02:06 [1]; [7]): 5.11
55 | AVTLNRIKI | 4.96 |  | 5.31 | 5.48 |  |  | 5.94 | pIC50 (HLA-A*02:06 [1]; [7]): 5.12
56 | KLVETGFVI | 4.88 | 4.85 | 5.98 | 5.97 |  | 6.70 |  | 
57 | STVDVRNIV | 5.20 | 5.09 | 7.74 | 5.46 |  | 5.79 |  | 
58 | KTRLFRSPQV | 5.03 | 5.15 |  | 6.01 | 5.21 | 6.36 |  | 
59 | VQLSNNKYV | 5.13 |  |  | 6.27 | ≤ 4.15 | 6.67 | 5.74 | 
60 | GALYLGHSA | 5.12 | 4.65 |  | 5.72 | 4.89 | 6.10 |  | 
61 | VIDRLPSET | 5.15 |  |  | 6.13 | 5.07 | 5.44 | 5.46 | 
62 | LTQVKELGIA | 4.93 | 4.41 |  | 6.82 | 4.87 | 7.74 |  | 
63 | SLCPIRGWAI |  |  |  |  |  |  |  | pIC50 (HLA-A*02:02; [8]): 5.26; pIC50 (HLA-A*68:02 [4]; [8]): 4.79
64 | VAMLLTHGA | 5.14 | 5.05 |  | 6.20 | 5.02 | 6.14 |  | 
65 | DISDVKVLAA | 4.47 | ≤ 4.15 | 5.30 | 5.66 |  | 5.34 |  | 
66 | ITLVVISVI | 4.82 |  |  | 5.74 | 5.22 | 5.99 | 6.26 | 
67 | MAAAKTPVIV | 5.22 | 5.07 | 5.92 | 6.81 |  | 5.44 |  | 
68 | KTPLYYLSGT | 4.66 | 4.35 |  | 5.51 | 4.46 | 5.85 |  | 
